Test results as given in patent US20220306695A1, “COMPSTATIN ANALOGUES AND THEIR MEDICAL USES” (priority 2019, published 2022).
Starred links: 1 amine or outer side, 2 acyl side, 3 side chain; linkers in the order of their positions; H or OH if unused. Positions of bridges follow the written chain, without caps; N, C: chain ends. Non-standard residues stand in square brackets, D forms with d. Groups on a side chain read outwards from the residue. *: point of attachment. Trp(1-Me) = Cn1cc(C[C@H](N)C(=O)O)c2ccccc21; C18 diacid = O=C(O)CCCCCCCCCCCCCCCCC(=O)*; γGlu = O=C(O)[C@H](CCC(=O)[*:2])N[*:1]; hCys = N[C@@H](CCS)C(=O)O

B1: Compound 26 (peptide)
peptide: Ac-ICIWQDWGEHRCTE-NH2
modifications: disulfide 2-12
SMILES: CC[C@H](C)[C@H](NC(C)=O)C(=O)N[C@H]1CSSC[C@@H](C(=O)N[C@H](C(=O)N[C@@H](CCC(=O)O)C(N)=O)[C@@H](C)O)NC(=O)[C@H](CCCNC(=N)N)NC(=O)[C@H](Cc2c[nH]cn2)NC(=O)[C@H](CCC(=O)O)NC(=O)CNC(=O)[C@H](Cc2c[nH]c3ccccc23)NC(=O)[C@H](CC(=O)O)NC(=O)[C@H](CCC(N)=O)NC(=O)[C@H](Cc2c[nH]c3ccccc23)NC(=O)[C@H]([C@@H](C)CC)NC1=O
B2: Compound 17 (peptide)
peptide: Ac-ICIWQDWGDHRCT-NH2
modifications: disulfide 2-12
SMILES: CC[C@H](C)[C@H](NC(C)=O)C(=O)N[C@H]1CSSC[C@@H](C(=O)N[C@H](C(N)=O)[C@@H](C)O)NC(=O)[C@H](CCCNC(=N)N)NC(=O)[C@H](Cc2c[nH]cn2)NC(=O)[C@H](CC(=O)O)NC(=O)CNC(=O)[C@H](Cc2c[nH]c3ccccc23)NC(=O)[C@H](CC(=O)O)NC(=O)[C@H](CCC(N)=O)NC(=O)[C@H](Cc2c[nH]c3ccccc23)NC(=O)[C@H]([C@@H](C)CC)NC1=O
B3: Compound 161 (peptide)
peptide: Ac-EFAI[Trp(1-Me)]QDWGEHR[hCys]EGEK([γGlu-Gly-γGlu-C18 diacid])-NH2
modifications: thioether 3-13
SMILES: CC[C@H](C)[C@@H]1NC(=O)[C@@H](NC(=O)[C@H](Cc2ccccc2)NC(=O)[C@H](CCC(=O)O)NC(C)=O)CSCC[C@@H](C(=O)N[C@@H](CCC(=O)O)C(=O)NCC(=O)N[C@@H](CCC(=O)O)C(=O)N[C@@H](CCCCNC(=O)CC[C@H](NC(=O)CNC(=O)CC[C@H](NC(=O)CCCCCCCCCCCCCCCCC(=O)O)C(=O)O)C(=O)O)C(N)=O)NC(=O)[C@H](CCCNC(=N)N)NC(=O)[C@H](Cc2c[nH]cn2)NC(=O)[C@H](CCC(=O)O)NC(=O)CNC(=O)[C@H](Cc2c[nH]c3ccccc23)NC(=O)[C@H](CC(=O)O)NC(=O)[C@H](CCC(N)=O)NC(=O)[C@H](Cc2cn(C)c3ccccc23)NC1=O
B4: Compound 25 (peptide)
peptide: Ac-ICIWQDWGEHRCTEA-NH2
modifications: disulfide 2-12
SMILES: CC[C@H](C)[C@H](NC(C)=O)C(=O)N[C@H]1CSSC[C@@H](C(=O)N[C@H](C(=O)N[C@@H](CCC(=O)O)C(=O)N[C@@H](C)C(N)=O)[C@@H](C)O)NC(=O)[C@H](CCCNC(=N)N)NC(=O)[C@H](Cc2c[nH]cn2)NC(=O)[C@H](CCC(=O)O)NC(=O)CNC(=O)[C@H](Cc2c[nH]c3ccccc23)NC(=O)[C@H](CC(=O)O)NC(=O)[C@H](CCC(N)=O)NC(=O)[C@H](Cc2c[nH]c3ccccc23)NC(=O)[C@H]([C@@H](C)CC)NC1=O
B5: Compound 12 (peptide)
peptide: Ac-ICIWQDWGAHRCE-NH2
modifications: disulfide 2-12
SMILES: CC[C@H](C)[C@H](NC(C)=O)C(=O)N[C@H]1CSSC[C@@H](C(=O)N[C@@H](CCC(=O)O)C(N)=O)NC(=O)[C@H](CCCNC(=N)N)NC(=O)[C@H](Cc2c[nH]cn2)NC(=O)[C@H](C)NC(=O)CNC(=O)[C@H](Cc2c[nH]c3ccccc23)NC(=O)[C@H](CC(=O)O)NC(=O)[C@H](CCC(N)=O)NC(=O)[C@H](Cc2c[nH]c3ccccc23)NC(=O)[C@H]([C@@H](C)CC)NC1=O
B6: Compound 30 (peptide)
peptide: Ac-EGEICIWQDWGEHRCT-NH2
modifications: disulfide 5-15
SMILES: CC[C@H](C)[C@@H]1NC(=O)[C@@H](NC(=O)[C@@H](NC(=O)[C@H](CCC(=O)O)NC(=O)CNC(=O)[C@H](CCC(=O)O)NC(C)=O)[C@@H](C)CC)CSSC[C@@H](C(=O)N[C@H](C(N)=O)[C@@H](C)O)NC(=O)[C@H](CCCNC(=N)N)NC(=O)[C@H](Cc2c[nH]cn2)NC(=O)[C@H](CCC(=O)O)NC(=O)CNC(=O)[C@H](Cc2c[nH]c3ccccc23)NC(=O)[C@H](CC(=O)O)NC(=O)[C@H](CCC(N)=O)NC(=O)[C@H](Cc2c[nH]c3ccccc23)NC1=O
B7: Compound 32 (peptide)
peptide: Ac-SEICIWQDWGEHRCTEA-NH2
modifications: disulfide 4-14
SMILES: CC[C@H](C)[C@@H]1NC(=O)[C@@H](NC(=O)[C@@H](NC(=O)[C@H](CCC(=O)O)NC(=O)[C@H](CO)NC(C)=O)[C@@H](C)CC)CSSC[C@@H](C(=O)N[C@H](C(=O)N[C@@H](CCC(=O)O)C(=O)N[C@@H](C)C(N)=O)[C@@H](C)O)NC(=O)[C@H](CCCNC(=N)N)NC(=O)[C@H](Cc2c[nH]cn2)NC(=O)[C@H](CCC(=O)O)NC(=O)CNC(=O)[C@H](Cc2c[nH]c3ccccc23)NC(=O)[C@H](CC(=O)O)NC(=O)[C@H](CCC(N)=O)NC(=O)[C@H](Cc2c[nH]c3ccccc23)NC1=O
B8: Compound 33 (peptide)
peptide: Ac-EICIWQDWGEHRCTE-NH2
modifications: disulfide 3-13
SMILES: CC[C@H](C)[C@@H]1NC(=O)[C@@H](NC(=O)[C@@H](NC(=O)[C@H](CCC(=O)O)NC(C)=O)[C@@H](C)CC)CSSC[C@@H](C(=O)N[C@H](C(=O)N[C@@H](CCC(=O)O)C(N)=O)[C@@H](C)O)NC(=O)[C@H](CCCNC(=N)N)NC(=O)[C@H](Cc2c[nH]cn2)NC(=O)[C@H](CCC(=O)O)NC(=O)CNC(=O)[C@H](Cc2c[nH]c3ccccc23)NC(=O)[C@H](CC(=O)O)NC(=O)[C@H](CCC(N)=O)NC(=O)[C@H](Cc2c[nH]c3ccccc23)NC1=O
B9: Compound 14 (peptide)
peptide: Ac-ESSAICIWQDWGEHRCTGAES-NH2
modifications: disulfide 6-16
SMILES: CC[C@H](C)[C@H](NC(=O)[C@H](C)NC(=O)[C@H](CO)NC(=O)[C@H](CO)NC(=O)[C@H](CCC(=O)O)NC(C)=O)C(=O)N[C@H]1CSSC[C@@H](C(=O)N[C@H](C(=O)NCC(=O)N[C@@H](C)C(=O)N[C@@H](CCC(=O)O)C(=O)N[C@@H](CO)C(N)=O)[C@@H](C)O)NC(=O)[C@H](CCCNC(=N)N)NC(=O)[C@H](Cc2c[nH]cn2)NC(=O)[C@H](CCC(=O)O)NC(=O)CNC(=O)[C@H](Cc2c[nH]c3ccccc23)NC(=O)[C@H](CC(=O)O)NC(=O)[C@H](CCC(N)=O)NC(=O)[C@H](Cc2c[nH]c3ccccc23)NC(=O)[C@H]([C@@H](C)CC)NC1=O
B10: Compound 18 (peptide)
peptide: Ac-ICIWQDWGRHRCT-NH2
modifications: disulfide 2-12
SMILES: CC[C@H](C)[C@H](NC(C)=O)C(=O)N[C@H]1CSSC[C@@H](C(=O)N[C@H](C(N)=O)[C@@H](C)O)NC(=O)[C@H](CCCNC(=N)N)NC(=O)[C@H](Cc2c[nH]cn2)NC(=O)[C@H](CCCNC(=N)N)NC(=O)CNC(=O)[C@H](Cc2c[nH]c3ccccc23)NC(=O)[C@H](CC(=O)O)NC(=O)[C@H](CCC(N)=O)NC(=O)[C@H](Cc2c[nH]c3ccccc23)NC(=O)[C@H]([C@@H](C)CC)NC1=O
B11: Compound 16 (peptide)
peptide: Ac-ICIWQEWGEHRCT-NH2
modifications: disulfide 2-12
SMILES: CC[C@H](C)[C@H](NC(C)=O)C(=O)N[C@H]1CSSC[C@@H](C(=O)N[C@H](C(N)=O)[C@@H](C)O)NC(=O)[C@H](CCCNC(=N)N)NC(=O)[C@H](Cc2c[nH]cn2)NC(=O)[C@H](CCC(=O)O)NC(=O)CNC(=O)[C@H](Cc2c[nH]c3ccccc23)NC(=O)[C@H](CCC(=O)O)NC(=O)[C@H](CCC(N)=O)NC(=O)[C@H](Cc2c[nH]c3ccccc23)NC(=O)[C@H]([C@@H](C)CC)NC1=O
B12: Compound 31 (peptide)
peptide: Ac-ESEICIWQDWGEHRCT-NH2
modifications: disulfide 5-15
SMILES: CC[C@H](C)[C@@H]1NC(=O)[C@@H](NC(=O)[C@@H](NC(=O)[C@H](CCC(=O)O)NC(=O)[C@H](CO)NC(=O)[C@H](CCC(=O)O)NC(C)=O)[C@@H](C)CC)CSSC[C@@H](C(=O)N[C@H](C(N)=O)[C@@H](C)O)NC(=O)[C@H](CCCNC(=N)N)NC(=O)[C@H](Cc2c[nH]cn2)NC(=O)[C@H](CCC(=O)O)NC(=O)CNC(=O)[C@H](Cc2c[nH]c3ccccc23)NC(=O)[C@H](CC(=O)O)NC(=O)[C@H](CCC(N)=O)NC(=O)[C@H](Cc2c[nH]c3ccccc23)NC1=O
B13: Compound 27 (peptide)
peptide: Ac-ICIWQDWGEHRCEGE-NH2
modifications: disulfide 2-12
SMILES: CC[C@H](C)[C@H](NC(C)=O)C(=O)N[C@H]1CSSC[C@@H](C(=O)N[C@@H](CCC(=O)O)C(=O)NCC(=O)N[C@@H](CCC(=O)O)C(N)=O)NC(=O)[C@H](CCCNC(=N)N)NC(=O)[C@H](Cc2c[nH]cn2)NC(=O)[C@H](CCC(=O)O)NC(=O)CNC(=O)[C@H](Cc2c[nH]c3ccccc23)NC(=O)[C@H](CC(=O)O)NC(=O)[C@H](CCC(N)=O)NC(=O)[C@H](Cc2c[nH]c3ccccc23)NC(=O)[C@H]([C@@H](C)CC)NC1=O
B14: Compound 22 (peptide)
peptide: Ac-ICIWQDWGEHRCE-NH2
modifications: disulfide 2-12
SMILES: CC[C@H](C)[C@H](NC(C)=O)C(=O)N[C@H]1CSSC[C@@H](C(=O)N[C@@H](CCC(=O)O)C(N)=O)NC(=O)[C@H](CCCNC(=N)N)NC(=O)[C@H](Cc2c[nH]cn2)NC(=O)[C@H](CCC(=O)O)NC(=O)CNC(=O)[C@H](Cc2c[nH]c3ccccc23)NC(=O)[C@H](CC(=O)O)NC(=O)[C@H](CCC(N)=O)NC(=O)[C@H](Cc2c[nH]c3ccccc23)NC(=O)[C@H]([C@@H](C)CC)NC1=O

Biological target: Human C3 (human, UniProt P01024 23-1663)
Sequence (P01024 23-1663 limits assumed): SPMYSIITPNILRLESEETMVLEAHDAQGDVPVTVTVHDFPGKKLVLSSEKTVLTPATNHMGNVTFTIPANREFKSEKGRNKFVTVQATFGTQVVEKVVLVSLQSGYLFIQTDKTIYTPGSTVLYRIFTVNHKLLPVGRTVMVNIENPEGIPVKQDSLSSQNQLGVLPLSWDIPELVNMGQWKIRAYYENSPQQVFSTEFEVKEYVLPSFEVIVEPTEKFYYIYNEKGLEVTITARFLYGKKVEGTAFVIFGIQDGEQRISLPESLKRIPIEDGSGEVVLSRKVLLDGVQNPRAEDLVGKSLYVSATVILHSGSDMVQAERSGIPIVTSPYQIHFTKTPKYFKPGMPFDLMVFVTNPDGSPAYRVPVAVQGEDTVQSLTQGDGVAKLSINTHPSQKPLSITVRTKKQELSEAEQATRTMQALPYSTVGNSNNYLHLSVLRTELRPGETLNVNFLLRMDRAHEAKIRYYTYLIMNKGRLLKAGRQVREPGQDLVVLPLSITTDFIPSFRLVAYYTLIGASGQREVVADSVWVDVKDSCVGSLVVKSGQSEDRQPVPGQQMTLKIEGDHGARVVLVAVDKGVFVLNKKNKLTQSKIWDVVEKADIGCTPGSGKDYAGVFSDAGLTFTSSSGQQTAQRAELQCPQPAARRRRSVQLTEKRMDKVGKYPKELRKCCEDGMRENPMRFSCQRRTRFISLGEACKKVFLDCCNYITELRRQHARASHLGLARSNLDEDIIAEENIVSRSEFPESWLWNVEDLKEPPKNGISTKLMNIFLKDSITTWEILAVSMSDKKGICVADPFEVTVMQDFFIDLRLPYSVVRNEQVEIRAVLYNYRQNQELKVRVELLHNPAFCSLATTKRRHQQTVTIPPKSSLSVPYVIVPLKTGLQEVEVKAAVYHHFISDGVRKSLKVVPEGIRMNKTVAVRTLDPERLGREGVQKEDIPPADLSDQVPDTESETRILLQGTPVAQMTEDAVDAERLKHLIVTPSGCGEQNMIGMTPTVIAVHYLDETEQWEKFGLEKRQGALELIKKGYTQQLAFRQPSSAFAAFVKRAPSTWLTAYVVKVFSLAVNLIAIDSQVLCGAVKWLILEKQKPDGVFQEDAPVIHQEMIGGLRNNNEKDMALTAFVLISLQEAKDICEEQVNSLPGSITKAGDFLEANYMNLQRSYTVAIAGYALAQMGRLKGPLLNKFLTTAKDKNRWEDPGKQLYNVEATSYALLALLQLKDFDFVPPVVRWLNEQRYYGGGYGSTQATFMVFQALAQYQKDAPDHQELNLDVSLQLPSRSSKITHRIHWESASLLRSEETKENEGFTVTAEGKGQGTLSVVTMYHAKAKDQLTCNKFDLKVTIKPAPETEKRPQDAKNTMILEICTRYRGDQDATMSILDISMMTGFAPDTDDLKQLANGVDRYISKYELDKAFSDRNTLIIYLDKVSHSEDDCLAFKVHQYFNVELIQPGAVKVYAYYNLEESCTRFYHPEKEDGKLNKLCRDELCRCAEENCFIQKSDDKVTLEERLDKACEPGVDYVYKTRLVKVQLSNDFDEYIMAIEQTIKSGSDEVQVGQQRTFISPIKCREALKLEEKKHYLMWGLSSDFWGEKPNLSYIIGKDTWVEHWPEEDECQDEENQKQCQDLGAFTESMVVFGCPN
Test: cell-based or functional assay

Binder	IC50[nM], inhibition of hemolysis [nM]
B1	< 100
B2	< 100
B3	< 100
B4	< 100
B5	< 100
B6	< 100
B7	< 100
B8	< 100
B9	< 100
B10	< 100
B11	< 100
B12	< 100
B13	< 100
B14	< 100
